Literature values in article PMC11854596.

Target: 53BP1 BRCT (Homo sapiens) (UniProt Q12888)
Sequence (Q12888 1714-1972): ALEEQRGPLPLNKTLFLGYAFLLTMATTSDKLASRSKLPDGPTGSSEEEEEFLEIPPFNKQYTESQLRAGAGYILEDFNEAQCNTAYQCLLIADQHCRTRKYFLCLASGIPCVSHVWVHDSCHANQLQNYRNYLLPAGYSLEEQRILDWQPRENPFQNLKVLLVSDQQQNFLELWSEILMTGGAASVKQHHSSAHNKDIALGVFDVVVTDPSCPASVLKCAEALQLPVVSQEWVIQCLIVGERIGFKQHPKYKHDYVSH

- Kd: 2.7 µM
Substance: γH2AX (from UniProt P16104)
